# Results: US20250019439A1 (Adimab, published 2025)
# How the values were obtained:
# [1] = target: T1, ADI-70326; test: SPR Carterra avidity, CHO anti-ID
# T1 construct: anti-CD3 antibody made in CHO cells, captured by anti-human Fc
# Method: (§1) Kinetic analysis was conducted at 25° C. in an HBSTE running buffer system (Carterra Cat #3630) using a Carterra LSA (Carterra USA, Salt Lake City, UT). The sample compartment was maintained at 20° C. for the duration of each experiment.
# (§2) For antibody capture experiments, a goat anti-human Fc antibody (Jackson ImmunoResearch) was covalently coupled to an HC30M sensor chip surface via standard amine coupling (1:1 EDC:NHS) and then blocked with ethanolamine (1.0 M, pH 8.5). Covalent coupling steps were performed in 25 mM MES buffer (Carterra, Cat #3625) plus 0.05% Tween20. The anti-CD3 antibodies (100 nM in running buffer) were flowed over discrete regions of interest on the chip surface for 5 minutes. […] Dissociation of the anti-idiotype antibodies was monitored for 300s. Several blank buffer samples were injected over the entire chip surface at the start of each non-regenerative kinetic cycle. The preceding blank buffer injection was used for blank surface subtraction. At the end of each non-regenerative kinetic cycle, all surfaces were regenerated via two 30s injections of 10 mM glycine, pH 1.7.
# (§3) In Tables 10A-10C, anti-CD3 antibodies are listed by ADI number or CTL number in the first column. […] CTL-62223 is mosunetuzumab, CTL-62227 is odronextamab, CTL-62228 is glofitamab, and CTL-62240 is ONO-4685. […] “W.B.” means weak binding under the conditions of this assay and thus a KD was unable to be assigned. “N.B.” means no binding under the conditions of this assay.
# [2] = target: T2, ADI-70327; test: SPR Carterra avidity, CHO anti-ID
# T2 construct: anti-CD3 antibody made in CHO cells, captured by anti-human Fc
# Method: as §1, §2, §3
# [3] = target: T3, ADI-70330; test: SPR Carterra avidity, CHO anti-ID
# T3 construct: anti-CD3 antibody made in CHO cells, captured by anti-human Fc
# Method: as §1, §2, §3
# [4] = target: T4, ADI-67450; test: SPR Carterra avidity, CHO anti-ID
# T4 construct: anti-CD3 antibody made in CHO cells, captured by anti-human Fc
# Method: as §1, §2, §3
# [5] = target: T5, ADI-26913 IgG; test: SPR Carterra avidity, CHO anti-ID
# T5 construct: anti-CD3 IgG
# Method: as §1, §2, §3
# [6] = target: T6, ADI-48587; test: SPR Carterra avidity, CHO anti-ID
# T6 construct: pH-dependent anti-CD3 antibody made in CHO cells
# Method: as §1, §2, §3
# [7] = target: T7, ADI-74966; test: SPR Carterra avidity, CHO anti-ID
# T7 construct: pH-dependent anti-CD3 antibody made in CHO cells
# Method: as §1, §2, §3
# [8] = target: T8, ADI-76358; test: SPR Carterra avidity, CHO anti-ID
# T8 construct: anti-CD3 antibody made in CHO cells, captured by anti-human Fc
# Method: as §1, §2, §3
# [9] = target: T9, ADI-76360; test: SPR Carterra avidity, CHO anti-ID
# T9 construct: anti-CD3 antibody made in CHO cells, captured by anti-human Fc
# Method: as §1, §2, §3
# [10] = target: T10, ADI-76362; test: SPR Carterra avidity, CHO anti-ID
# T10 construct: anti-CD3 antibody made in CHO cells, captured by anti-human Fc
# Method: as §1, §2, §3
# [11] = target: T11, ADI-26912; test: SPR Carterra avidity, yeast anti-ID
# T11 construct: anti-CD3 antibody made in CHO cells, captured by anti-human Fc
# How it was run: (§4)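 Surface plasmon resonance on a Carterra LSA at 25° C, HBSTE buffer. The anti-CD3 antibody is Fc-captured (100 nM, 5 min) and the anti-idiotype antibody serves as analyte; dissociation lasts 300s and the surface is regenerated with 10 mM glycine pH 1.7.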
# [12] = target: T7, ADI-74966; test: SPR Carterra avidity, yeast anti-ID
# How it was run: as §4
# [13] = target: T12, ADI-76361; test: SPR Carterra avidity, yeast anti-ID
# T12 construct: anti-CD3 antibody made in CHO cells, captured by anti-human Fc
# How it was run: as §4
# [14] = target: T13, ADI-26906 Fab; test: BLI; tip ADI-34134 IgG, solution anti-CD3 Fab
# T13 construct: anti-CD3 Fab by papain digestion of the IgG
# Method: (§5) ForteBio affinity measurements were performed generally as previously described (Estep et al., MAbs. 2013 5(2):270-8). Briefly, ForteBio affinity measurements were performed by loading antibody IgG or Fabs on-line onto AHC sensors. Sensors were equilibrated off-line in assay buffer for 30 minutes and then monitored on-line for 60 seconds for baseline establishment. For avid binding measurement, sensors with loaded antibodies were exposed to IgG or Fab solutions for 3 minutes, afterwards they were transferred to assay buffer for 3 minutes for off-rate measurement. Kinetics data were fit using a 1:1 binding model in the data analysis software provided by ForteBio to obtain equilibrium dissociation constant (KD=koff/kₒₙ) values. In each column, tip-immobilized antibodies are listed first and solution antibodies second.
# (§6) CTL-19613 is an IgG1 antibody prepared with anti-CD3 variable domains corresponding with those of clone 12C described in United States Publication Number US 2010/0183615 (e.g., see paragraphs 469-479 and FIG. 25 thereof), which also make up the CD3 binding domain of the bispecific antibody pasotuxizumab. […] In each column, tip-immobilized antibodies are listed first and solution antibodies second.
# [15] = target: T14, ADI-26916 Fab; test: BLI; tip ADI-34134 IgG, solution anti-CD3 Fab
# T14 construct: anti-CD3 Fab by papain digestion of the IgG
# Method: as §5, §6
# [16] = target: T15, ADI-26920 Fab; test: BLI; tip ADI-34134 IgG, solution anti-CD3 Fab
# T15 construct: anti-CD3 Fab by papain digestion of the IgG
# Method: as §5, §6
# [17] = target: T16, ADI-26921 Fab; test: BLI; tip ADI-34134 IgG, solution anti-CD3 Fab
# T16 construct: anti-CD3 Fab by papain digestion of the IgG
# Method: as §5, §6
# [18] = target: T17, ADI-26927 Fab; test: BLI; tip ADI-34134 IgG, solution anti-CD3 Fab
# T17 construct: anti-CD3 Fab by papain digestion of the IgG
# Method: as §5, §6
# [19] = target: T18, ADI-26928 Fab; test: BLI; tip ADI-34134 IgG, solution anti-CD3 Fab
# T18 construct: anti-CD3 Fab by papain digestion of the IgG
# Method: as §5, §6
# [20] = target: T19, ADI-26916 IgG; test: SPR Carterra avidity, yeast anti-ID, *koff limit
# T19 construct: anti-CD3 IgG
# How it was run: as §4
# [21] = target: T20, ADI-67447; test: SPR Carterra avidity, CHO anti-ID
# T20 construct: anti-CD3 antibody made in CHO cells, captured by anti-human Fc
# Method: as §1, §2, §3
# [22] = target: T21, ADI-26919; test: SPR Carterra avidity, CHO anti-ID
# T21 construct: anti-CD3 antibody made in CHO cells, captured by anti-human Fc
# Method: as §1, §2, §3
# [23] = target: T22, ADI-26920 IgG; test: SPR Carterra avidity, CHO anti-ID
# T22 construct: anti-CD3 IgG
# Method: as §1, §2, §3
# [24] = target: T23, ADI-26924; test: SPR Carterra avidity, CHO anti-ID
# T23 construct: anti-CD3 antibody made in CHO cells, captured by anti-human Fc
# Method: as §1, §2, §3
# [25] = target: T24, ADI-26943; test: SPR Carterra avidity, CHO anti-ID
# T24 construct: anti-CD3 antibody made in CHO cells, captured by anti-human Fc
# Method: as §1, §2, §3
# [26] = target: T25, ADI-76357; test: SPR Carterra avidity, CHO anti-ID
# T25 construct: anti-CD3 antibody made in CHO cells, captured by anti-human Fc
# Method: as §1, §2, §3
# [27] = target: T26, ADI-74968; test: SPR Carterra avidity, yeast anti-ID
# T26 construct: pH-dependent anti-CD3 antibody made in CHO cells
# How it was run: as §4
# [28] = target: T27, ADI-76359; test: SPR Carterra avidity, yeast anti-ID
# T27 construct: anti-CD3 antibody made in CHO cells, captured by anti-human Fc
# How it was run: as §4
# T7 sequence (VH, as listed by the source, chain 1 of 2): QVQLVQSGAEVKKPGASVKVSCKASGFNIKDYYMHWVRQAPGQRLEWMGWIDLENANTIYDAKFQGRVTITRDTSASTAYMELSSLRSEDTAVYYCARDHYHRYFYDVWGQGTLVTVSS
# T7 sequence (VL, as listed by the source, chain 2 of 2): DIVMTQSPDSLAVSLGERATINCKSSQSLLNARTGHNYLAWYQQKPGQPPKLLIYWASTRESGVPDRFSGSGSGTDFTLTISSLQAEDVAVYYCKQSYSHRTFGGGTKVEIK
# T12 sequence (VH, as listed by the source, chain 1 of 2): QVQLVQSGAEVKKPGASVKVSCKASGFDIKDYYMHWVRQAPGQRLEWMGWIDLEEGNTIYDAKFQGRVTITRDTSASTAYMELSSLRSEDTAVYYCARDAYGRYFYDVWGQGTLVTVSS
# T12 sequence (VL, as listed by the source, chain 2 of 2): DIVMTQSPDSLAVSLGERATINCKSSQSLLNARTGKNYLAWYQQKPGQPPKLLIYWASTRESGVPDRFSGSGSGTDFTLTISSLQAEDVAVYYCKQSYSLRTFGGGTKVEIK
# T3 sequence (VH, as listed by the source limits assumed, chain 1 of 2): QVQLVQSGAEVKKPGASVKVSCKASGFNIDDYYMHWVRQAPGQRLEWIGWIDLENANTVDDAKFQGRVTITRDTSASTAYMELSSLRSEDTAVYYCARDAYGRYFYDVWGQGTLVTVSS
# T3 sequence (VL, as listed by the source limits assumed, chain 2 of 2): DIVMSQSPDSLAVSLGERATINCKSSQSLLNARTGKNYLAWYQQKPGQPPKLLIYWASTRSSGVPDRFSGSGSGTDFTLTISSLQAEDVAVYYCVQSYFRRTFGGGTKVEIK
# T27 sequence (VH, as listed by the source, chain 1 of 2): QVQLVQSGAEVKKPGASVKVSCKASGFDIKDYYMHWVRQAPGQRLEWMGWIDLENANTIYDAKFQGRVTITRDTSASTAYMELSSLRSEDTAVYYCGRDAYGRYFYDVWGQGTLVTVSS
# T2 sequence (VH, as listed by the source limits assumed, chain 1 of 2): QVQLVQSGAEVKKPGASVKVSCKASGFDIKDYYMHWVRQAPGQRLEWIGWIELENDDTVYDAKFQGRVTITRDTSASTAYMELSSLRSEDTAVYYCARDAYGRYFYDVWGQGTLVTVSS
# T15 sequence (VH, as listed by the source limits assumed, chain 1 of 2): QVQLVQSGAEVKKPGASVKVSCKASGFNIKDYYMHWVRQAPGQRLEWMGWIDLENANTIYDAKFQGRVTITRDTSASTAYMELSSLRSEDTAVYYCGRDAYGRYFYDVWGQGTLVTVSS
# T9 sequence (VH, as listed by the source, chain 1 of 2): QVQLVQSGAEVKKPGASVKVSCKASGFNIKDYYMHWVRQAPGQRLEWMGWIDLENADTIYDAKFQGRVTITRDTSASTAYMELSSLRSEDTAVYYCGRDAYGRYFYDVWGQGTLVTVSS
# T23 sequence (VH, as listed by the source, chain 1 of 2): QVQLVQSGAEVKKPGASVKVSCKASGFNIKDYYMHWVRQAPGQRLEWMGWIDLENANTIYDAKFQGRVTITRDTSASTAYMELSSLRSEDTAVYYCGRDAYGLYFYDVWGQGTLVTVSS
# T4 sequence (VH, as listed by the source limits assumed, chain 1 of 2): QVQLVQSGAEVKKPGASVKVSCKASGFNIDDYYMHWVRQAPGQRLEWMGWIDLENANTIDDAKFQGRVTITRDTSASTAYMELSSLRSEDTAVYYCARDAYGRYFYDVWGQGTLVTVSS
# T4 sequence (VL, as listed by the source limits assumed, chain 2 of 2): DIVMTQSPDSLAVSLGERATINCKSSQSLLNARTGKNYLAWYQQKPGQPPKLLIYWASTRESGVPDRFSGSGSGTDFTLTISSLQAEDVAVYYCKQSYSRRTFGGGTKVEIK
# T18 sequence (VH, as listed by the source limits assumed, chain 1 of 2): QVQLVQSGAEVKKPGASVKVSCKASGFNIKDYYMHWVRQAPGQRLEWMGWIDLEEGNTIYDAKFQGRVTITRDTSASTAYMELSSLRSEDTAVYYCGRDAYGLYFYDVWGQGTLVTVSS
# T21 sequence (VH, as listed by the source limits assumed, chain 1 of 2): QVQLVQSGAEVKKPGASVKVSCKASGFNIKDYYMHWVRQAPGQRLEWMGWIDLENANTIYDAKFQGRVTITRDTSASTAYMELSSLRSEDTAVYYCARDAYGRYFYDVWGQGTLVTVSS
# T19 sequence (VH, as listed by the source, chain 1 of 2): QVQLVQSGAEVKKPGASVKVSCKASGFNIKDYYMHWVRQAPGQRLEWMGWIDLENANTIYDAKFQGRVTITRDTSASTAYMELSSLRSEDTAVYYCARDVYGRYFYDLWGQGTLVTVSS
# T1 sequence (VH, as listed by the source limits assumed, chain 1 of 2): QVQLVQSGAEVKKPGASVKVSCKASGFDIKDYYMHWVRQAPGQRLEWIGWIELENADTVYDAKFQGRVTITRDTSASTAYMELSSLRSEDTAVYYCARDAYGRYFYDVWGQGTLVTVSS
# T17 sequence (VH, as listed by the source limits assumed, chain 1 of 2): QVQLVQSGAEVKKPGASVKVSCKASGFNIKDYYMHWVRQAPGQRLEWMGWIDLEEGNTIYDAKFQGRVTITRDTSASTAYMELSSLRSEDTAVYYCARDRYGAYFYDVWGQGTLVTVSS
# T6 sequence (VL, as listed by the source, chain 2 of 2): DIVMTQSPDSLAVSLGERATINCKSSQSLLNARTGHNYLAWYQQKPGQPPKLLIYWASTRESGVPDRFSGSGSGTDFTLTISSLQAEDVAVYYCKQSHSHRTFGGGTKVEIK
# T8 sequence (VH, as listed by the source, chain 1 of 2): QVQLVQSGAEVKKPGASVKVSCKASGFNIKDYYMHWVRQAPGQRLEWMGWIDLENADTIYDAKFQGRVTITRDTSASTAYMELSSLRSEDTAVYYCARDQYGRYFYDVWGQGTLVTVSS
# T25 sequence (VH, as listed by the source, chain 1 of 2): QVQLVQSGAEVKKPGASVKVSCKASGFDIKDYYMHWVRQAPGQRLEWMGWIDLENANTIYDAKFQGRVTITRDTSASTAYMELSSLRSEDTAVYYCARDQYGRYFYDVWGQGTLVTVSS
# T16 sequence (VH, as listed by the source limits assumed, chain 1 of 2): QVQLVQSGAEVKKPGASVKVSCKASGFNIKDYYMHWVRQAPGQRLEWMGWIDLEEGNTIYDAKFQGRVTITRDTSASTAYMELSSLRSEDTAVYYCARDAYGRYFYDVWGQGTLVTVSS
# T11 sequence (VH, as listed by the source, chain 1 of 2): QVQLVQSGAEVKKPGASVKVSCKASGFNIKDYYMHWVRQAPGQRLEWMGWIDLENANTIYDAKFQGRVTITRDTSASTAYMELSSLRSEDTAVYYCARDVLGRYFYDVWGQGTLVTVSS
# T10 sequence (VH, as listed by the source, chain 1 of 2): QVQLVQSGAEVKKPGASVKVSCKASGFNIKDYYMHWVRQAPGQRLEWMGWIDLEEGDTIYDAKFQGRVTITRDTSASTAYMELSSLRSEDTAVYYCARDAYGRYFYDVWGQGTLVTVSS
# T24 sequence (VH, as listed by the source, chain 1 of 2): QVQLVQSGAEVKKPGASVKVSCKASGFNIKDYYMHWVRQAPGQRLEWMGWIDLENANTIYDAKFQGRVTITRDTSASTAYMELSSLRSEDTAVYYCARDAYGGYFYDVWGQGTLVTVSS
# T24 sequence (VL, as listed by the source, chain 2 of 2): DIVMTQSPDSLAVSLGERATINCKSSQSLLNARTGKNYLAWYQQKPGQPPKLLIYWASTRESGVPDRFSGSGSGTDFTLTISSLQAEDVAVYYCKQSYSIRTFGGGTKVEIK
# T20 sequence (VH, as listed by the source limits assumed, chain 1 of 2): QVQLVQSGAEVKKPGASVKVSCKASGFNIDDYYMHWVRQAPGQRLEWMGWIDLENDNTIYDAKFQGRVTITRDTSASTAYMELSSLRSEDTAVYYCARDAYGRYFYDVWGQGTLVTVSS
# T26 sequence (VH, as listed by the source, chain 1 of 2): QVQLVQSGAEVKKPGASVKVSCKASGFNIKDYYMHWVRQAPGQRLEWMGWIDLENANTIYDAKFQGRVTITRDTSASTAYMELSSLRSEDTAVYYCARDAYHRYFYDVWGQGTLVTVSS
# T5 sequence (VH, as listed by the source limits assumed, chain 1 of 2): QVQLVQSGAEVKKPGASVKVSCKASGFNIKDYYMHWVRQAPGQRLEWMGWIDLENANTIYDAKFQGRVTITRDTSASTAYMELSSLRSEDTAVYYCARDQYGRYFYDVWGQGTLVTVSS
binder,measurement,setting,value
"ADI-34134 IgG (antibody, V domains shown) VH: QVQLVQSGAEVKKPGSSVKVSCKASGGTFSSYAISWVRQAPGQGLEWMGGIIPIFGTANYAQKFQGRVTITADESTSTAYMELSSLRSEDTAVYYCARGAPNYYGSGGYDDGWFDPWGQGTLVTVSS VL: EIVLTQSPGTLSLSPGERATLSCRASQSVSSDYLAWYQQKPGQAPRLLIYGASSRATGIPDRFSGSGSGTDFTLTISRLEPEDFAVYYCQQFGRVPTFGGGTKVEIK",Kd,[1],1.2 nM
same,Kd,[2],1.3 nM
same,Kd,[3],0.64 nM
same,Kd,[4],0.68 nM
same,Kd,[5],0.13 nM
same,Kd,[6],1.3 nM
same,Kd,[7],0.39 nM
same,Kd,[8],0.54 nM
same,Kd,[9],0.21 nM
same,Kd,[10],0.23 nM
same,Kd,[11],34 nM
same,Kd,[12],52 nM
same,Kd,[13],7.1 nM
same,Kd,[14],36 nM
same,Kd,[15],110 nM
same,Kd,[16],29.8 nM
same,Kd,[17],92.7 nM
same,Kd,[18],25.6 nM
same,Kd,[19],182 nM
same,Kd,[20],6.3 nM
"ADI-34145 IgG (antibody, V domains shown, anti-ID IgG) VH: EVQLLESGGGLVQPGGSLRLSCAASGFTFSSYAMSWVRQAPGKGLEWVSTISGSGGSTYYADSVKGRFTISRDNSKNTLYLQMNSLRAEDTAVYYCARLGGRRGSGSSYYYYYGMDVWGQGTTVTVSS VL: not shown",Kd,[21],14 nM
same,Kd,[22],12 nM
same,Kd,[23],15 nM
same,Kd,[24],3.5 nM
same,Kd,[25],4.2 nM
same,Kd,[26],5.6 nM
same,Kd,[27],67 nM
same,Kd,[28],14 nM
